Laboratory results taken from patent publication US20140087995A1 (published 2014).
Numbered stars: 1 amine (or outer) side, 2 acyl side, 3 side chain; on linkers, the order of the positions; unused ones are H or OH. Bridge positions count the residues as written; N and C are the ends. * marks the point of attachment. C20 diacid = O=C(O)CCCCCCCCCCCCCCCCCCC(=O)*; γGlu = O=C(O)[C@H](CCC(=O)[*:2])N[*:1]; AEEA = NCCOCCOCC(=O)O

B1: N^α1-[2-[2-[2-[[2-[2-[2-[[(4S)-4-carboxy-4-(19-carboxynonadecanoylamino)butanoyl]amino]ethoxy]ethoxy]acetyl]amino]ethoxy]ethoxy]acetyl]-[Glu14,Arg17,Pro21,Pro27 … (peptide)
peptide: {C20 diacid-γGlu-AEEA-AEEA}-KCNTATCATQRLAEFLRHSSPNFGAIPSSTNVGSNTP-NH2
modifications: disulfide 2-7
SMILES: CC[C@H](C)[C@H](NC(=O)[C@H](C)NC(=O)CNC(=O)[C@H](Cc1ccccc1)NC(=O)[C@H](CC(N)=O)NC(=O)[C@@H]1CCCN1C(=O)[C@H](CO)NC(=O)[C@H](CO)NC(=O)[C@H](Cc1c[nH]cn1)NC(=O)[C@H](CCCNC(=N)N)NC(=O)[C@H](CC(C)C)NC(=O)[C@H](Cc1ccccc1)NC(=O)[C@H](CCC(=O)O)NC(=O)[C@H](C)NC(=O)[C@H](CC(C)C)NC(=O)[C@H](CCCNC(=N)N)NC(=O)[C@H](CCC(N)=O)NC(=O)[C@@H](NC(=O)[C@H](C)NC(=O)[C@@H]1CSSC[C@H](NC(=O)[C@H](CCCCN)NC(=O)COCCOCCNC(=O)COCCOCCNC(=O)CC[C@H](NC(=O)CCCCCCCCCCCCCCCCCCC(=O)O)C(=O)O)C(=O)N[C@@H](CC(N)=O)C(=O)N[C@@H]([C@@H](C)O)C(=O)N[C@@H](C)C(=O)N[C@@H]([C@@H](C)O)C(=O)N1)[C@@H](C)O)C(=O)N1CCC[C@H]1C(=O)N[C@@H](CO)C(=O)N[C@@H](CO)C(=O)N[C@H](C(=O)N[C@@H](CC(N)=O)C(=O)N[C@H](C(=O)NCC(=O)N[C@@H](CO)C(=O)N[C@@H](CC(N)=O)C(=O)N[C@H](C(=O)N1CCC[C@H]1C(N)=O)[C@@H](C)O)C(C)C)[C@@H](C)O
notes: also called compound 20
B2: N^α1-[(4S)-4-carboxy-4-(19-carboxynonadecanoylamino)butanoyl]-[Asp14,Arg17,Pro21,Pro27,Pro37]-h-amylin (peptide)
peptide: {C20 diacid-γGlu}-KCNTATCATQRLADFLRHSSPNFGAIPSSTNVGSNTP-NH2
modifications: disulfide 2-7
SMILES: CC[C@H](C)[C@H](NC(=O)[C@H](C)NC(=O)CNC(=O)[C@H](Cc1ccccc1)NC(=O)[C@H](CC(N)=O)NC(=O)[C@@H]1CCCN1C(=O)[C@H](CO)NC(=O)[C@H](CO)NC(=O)[C@H](Cc1c[nH]cn1)NC(=O)[C@H](CCCNC(=N)N)NC(=O)[C@H](CC(C)C)NC(=O)[C@H](Cc1ccccc1)NC(=O)[C@H](CC(=O)O)NC(=O)[C@H](C)NC(=O)[C@H](CC(C)C)NC(=O)[C@H](CCCNC(=N)N)NC(=O)[C@H](CCC(N)=O)NC(=O)[C@@H](NC(=O)[C@H](C)NC(=O)[C@@H]1CSSC[C@H](NC(=O)[C@H](CCCCN)NC(=O)CC[C@H](NC(=O)CCCCCCCCCCCCCCCCCCC(=O)O)C(=O)O)C(=O)N[C@@H](CC(N)=O)C(=O)N[C@@H]([C@@H](C)O)C(=O)N[C@@H](C)C(=O)N[C@@H]([C@@H](C)O)C(=O)N1)[C@@H](C)O)C(=O)N1CCC[C@H]1C(=O)N[C@@H](CO)C(=O)N[C@@H](CO)C(=O)N[C@H](C(=O)N[C@@H](CC(N)=O)C(=O)N[C@H](C(=O)NCC(=O)N[C@@H](CO)C(=O)N[C@@H](CC(N)=O)C(=O)N[C@H](C(=O)N1CCC[C@H]1C(N)=O)[C@@H](C)O)C(C)C)[C@@H](C)O
notes: also called compound 10
B3: N^α1-[(4S)-4-carboxy-4-(19-carboxynonadecanoylamino)butanoyl]-[Glu14,Arg17,Pro21,Pro27,Asp35,Pro37]-h-amylin (peptide)
peptide: {C20 diacid-γGlu}-KCNTATCATQRLAEFLRHSSPNFGAIPSSTNVGSDTP-NH2
modifications: disulfide 2-7
SMILES: CC[C@H](C)[C@H](NC(=O)[C@H](C)NC(=O)CNC(=O)[C@H](Cc1ccccc1)NC(=O)[C@H](CC(N)=O)NC(=O)[C@@H]1CCCN1C(=O)[C@H](CO)NC(=O)[C@H](CO)NC(=O)[C@H](Cc1c[nH]cn1)NC(=O)[C@H](CCCNC(=N)N)NC(=O)[C@H](CC(C)C)NC(=O)[C@H](Cc1ccccc1)NC(=O)[C@H](CCC(=O)O)NC(=O)[C@H](C)NC(=O)[C@H](CC(C)C)NC(=O)[C@H](CCCNC(=N)N)NC(=O)[C@H](CCC(N)=O)NC(=O)[C@@H](NC(=O)[C@H](C)NC(=O)[C@@H]1CSSC[C@H](NC(=O)[C@H](CCCCN)NC(=O)CC[C@H](NC(=O)CCCCCCCCCCCCCCCCCCC(=O)O)C(=O)O)C(=O)N[C@@H](CC(N)=O)C(=O)N[C@@H]([C@@H](C)O)C(=O)N[C@@H](C)C(=O)N[C@@H]([C@@H](C)O)C(=O)N1)[C@@H](C)O)C(=O)N1CCC[C@H]1C(=O)N[C@@H](CO)C(=O)N[C@@H](CO)C(=O)N[C@H](C(=O)N[C@@H](CC(N)=O)C(=O)N[C@H](C(=O)NCC(=O)N[C@@H](CO)C(=O)N[C@@H](CC(=O)O)C(=O)N[C@H](C(=O)N1CCC[C@H]1C(N)=O)[C@@H](C)O)C(C)C)[C@@H](C)O
notes: also called compound 11
B4: N^α1-[(4S)-4-carboxy-4-(19-carboxynonadecanoylamino)butanoyl]-[Glu14,Arg17,Pro21,Pro27,Pro29]-h-amylin (peptide)
peptide: {C20 diacid-γGlu}-KCNTATCATQRLAEFLRHSSPNFGAIPSPTNVGSNTY-NH2
modifications: disulfide 2-7
SMILES: CC[C@H](C)[C@H](NC(=O)[C@H](C)NC(=O)CNC(=O)[C@H](Cc1ccccc1)NC(=O)[C@H](CC(N)=O)NC(=O)[C@@H]1CCCN1C(=O)[C@H](CO)NC(=O)[C@H](CO)NC(=O)[C@H](Cc1c[nH]cn1)NC(=O)[C@H](CCCNC(=N)N)NC(=O)[C@H](CC(C)C)NC(=O)[C@H](Cc1ccccc1)NC(=O)[C@H](CCC(=O)O)NC(=O)[C@H](C)NC(=O)[C@H](CC(C)C)NC(=O)[C@H](CCCNC(=N)N)NC(=O)[C@H](CCC(N)=O)NC(=O)[C@@H](NC(=O)[C@H](C)NC(=O)[C@@H]1CSSC[C@H](NC(=O)[C@H](CCCCN)NC(=O)CC[C@H](NC(=O)CCCCCCCCCCCCCCCCCCC(=O)O)C(=O)O)C(=O)N[C@@H](CC(N)=O)C(=O)N[C@@H]([C@@H](C)O)C(=O)N[C@@H](C)C(=O)N[C@@H]([C@@H](C)O)C(=O)N1)[C@@H](C)O)C(=O)N1CCC[C@H]1C(=O)N[C@@H](CO)C(=O)N1CCC[C@H]1C(=O)N[C@H](C(=O)N[C@@H](CC(N)=O)C(=O)N[C@H](C(=O)NCC(=O)N[C@@H](CO)C(=O)N[C@@H](CC(N)=O)C(=O)N[C@H](C(=O)N[C@@H](Cc1ccc(O)cc1)C(N)=O)[C@@H](C)O)C(C)C)[C@@H](C)O
notes: also called compound 37
B5: N^α1-[(4S)-4-carboxy-4-(19-carboxynonadecanoylamino)butanoyl]-[Glu14,Arg17,Pro21,Pro27,His35]-h-amylin (peptide)
peptide: {C20 diacid-γGlu}-KCNTATCATQRLAEFLRHSSPNFGAIPSSTNVGSHTY-NH2
modifications: disulfide 2-7
SMILES: CC[C@H](C)[C@H](NC(=O)[C@H](C)NC(=O)CNC(=O)[C@H](Cc1ccccc1)NC(=O)[C@H](CC(N)=O)NC(=O)[C@@H]1CCCN1C(=O)[C@H](CO)NC(=O)[C@H](CO)NC(=O)[C@H](Cc1c[nH]cn1)NC(=O)[C@H](CCCNC(=N)N)NC(=O)[C@H](CC(C)C)NC(=O)[C@H](Cc1ccccc1)NC(=O)[C@H](CCC(=O)O)NC(=O)[C@H](C)NC(=O)[C@H](CC(C)C)NC(=O)[C@H](CCCNC(=N)N)NC(=O)[C@H](CCC(N)=O)NC(=O)[C@@H](NC(=O)[C@H](C)NC(=O)[C@@H]1CSSC[C@H](NC(=O)[C@H](CCCCN)NC(=O)CC[C@H](NC(=O)CCCCCCCCCCCCCCCCCCC(=O)O)C(=O)O)C(=O)N[C@@H](CC(N)=O)C(=O)N[C@@H]([C@@H](C)O)C(=O)N[C@@H](C)C(=O)N[C@@H]([C@@H](C)O)C(=O)N1)[C@@H](C)O)C(=O)N1CCC[C@H]1C(=O)N[C@@H](CO)C(=O)N[C@@H](CO)C(=O)N[C@H](C(=O)N[C@@H](CC(N)=O)C(=O)N[C@H](C(=O)NCC(=O)N[C@@H](CO)C(=O)N[C@@H](Cc1c[nH]cn1)C(=O)N[C@H](C(=O)N[C@@H](Cc1ccc(O)cc1)C(N)=O)[C@@H](C)O)C(C)C)[C@@H](C)O
notes: also called compound 18

What follows are binders tested against T1, human calcitonin receptor (human, UniProt P30988 25-474) (assay: cell-based or functional assay).
T1 sequence (looked up): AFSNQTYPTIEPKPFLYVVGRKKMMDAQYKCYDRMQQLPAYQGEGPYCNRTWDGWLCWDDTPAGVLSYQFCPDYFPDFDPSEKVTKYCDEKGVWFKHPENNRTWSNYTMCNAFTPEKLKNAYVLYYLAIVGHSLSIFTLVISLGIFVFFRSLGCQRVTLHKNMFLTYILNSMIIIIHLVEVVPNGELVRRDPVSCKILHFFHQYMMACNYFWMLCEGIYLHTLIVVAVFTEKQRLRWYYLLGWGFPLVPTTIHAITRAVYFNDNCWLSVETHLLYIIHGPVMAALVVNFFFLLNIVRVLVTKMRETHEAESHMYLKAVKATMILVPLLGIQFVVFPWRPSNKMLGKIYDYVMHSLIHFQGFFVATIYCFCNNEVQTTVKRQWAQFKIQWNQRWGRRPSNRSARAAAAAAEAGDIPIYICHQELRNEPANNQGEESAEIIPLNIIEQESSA
For B1, the “Ratio hCT/hAmylin funct.” value was 3.6 ratio. For B2, the “Ratio hCT/hAmylin funct.” value was 1 ratio. {C20 diacid-γGlu}-KCNTATCATQRLAEFLRHSSPNFGAIPSSTNVGSNTP-NH2 (disulfide 2-7, also called compound 8) was tested, and the “Ratio hCT/hAmylin funct.” value was 1.1 ratio. For B3, the “Ratio hCT/hAmylin funct.” value was 0.9 ratio. With B4 the “Ratio hCT/hAmylin funct.” value was 4 ratio. For B5, the “Ratio hCT/hAmylin funct.” value was 4.8 ratio.

These binders were tested against T2, human amylin receptor (amylin 3(a) receptor: human calcitonin receptor with RAMP-3) (human, UniProt P30988 25-474; O60896 24-148, limits assumed) (assay: SPA competition binding on membranes of BHK cells with human calcitonin receptor + RAMP-3; displacement of 125I-rat amylin (Assay V)).
T2 construct: whole, on cells; Whole cells in the luciferase assay (Assay II a); also called hAmylin-R; hAmylinR
T2 sequence (looked up) 1: T1 sequence (looked up)
T2 sequence (looked up) 2: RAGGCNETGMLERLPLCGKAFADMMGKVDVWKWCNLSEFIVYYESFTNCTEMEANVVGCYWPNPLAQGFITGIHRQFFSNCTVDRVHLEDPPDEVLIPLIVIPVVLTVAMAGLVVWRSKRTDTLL
Method: The binding assay was performed using scintillation proximity assay (SPA) beads (RPNQ0001) from PerkinElmer and cell membranes from the Amylin 3(a)/CRE-luc cells (as described in Assay (II)) were used. Membranes were prepared in the following way; the cells were rinsed with PBS and incubated with Versene for approximately 5 min before harvesting. The cells were flushed with PBS and the cell-suspension was centrifuged for 5 min at 1000 rpm. Cells were homogenized (ultrathurrax) in a buffer containing 20 mM Na-HEPES and 10 mM EDTA (pH 7.4) and centrifuged at 20.000 rpm for 15 min. The resulting pellet was resuspended, homogenized and centrifuged (20.000 rpm, 15 min) in a buffer containing 20 mM Na-HEPES and 0.1 mM EDTA (pH 7.4, buffer 2). The resulting pellet was resuspended in buffer 2 and protein concentration was measured (BCA protein Assay, Pierce). The homogenate was kept cold during the whole procedure. The membranes were kept at −80° C. until use. The assay was performed in a 384 well Optiplate (PerkinElmer) in a total volume of 40 ul. Membranes were mixed with SPA beads. Final concentration of membranes 35 ng/μL final and SPA beads was 0.05 mg/well. Test-compounds were dissolved in DMSO and further diluted in assay buffer (50 mM Hepes, pH 7.4, 1 mM CaCl2, 5 mM MgCl₂, 0.1% OA and 0.02% Tween20). […] The final mixture was incubated with shaking at 400 rpm for 120 min at 25° C. prior to centrifugation (1500 rpm, 10 min). Samples were analyzed on TopCounter™ (Packard). The IC₅₀ was calculated using (one site binding competition analysis) GraphPad Prism5 as a measure of receptor affinity.
Binder B1 has an IC50 of 0.217 nM. With B2 the IC50 was 0.082 nM. {C20 diacid-γGlu}-KCNTATCATQRLAEFLRHSSPNFGAIPSSTNVGSNTP-NH2 (disulfide 2-7, also called compound 8) was tested, and the IC50 was 0.072 nM. With B3 the IC50 was 0.105 nM. Work on B4 yielded an IC50 of 0.97 nM. For B5, the IC50 was 0.554 nM.
